± gives the uncertainty stated by the source.
Experiment: self-splicing fitness, log relative to wild type (ln ratio); higher = more splicing; Tetrahymena group I intron in knt gene, E. coli kanamycin selection, DiMSum; sequences stand for … in CUCUCU…GGAGGGAAAAGUUAUCAGGCAUGCACCUGGUAGCUAGUCUUUAAACCAAUAGAUUGCAUCGGUUUAAAAGGCAAGACCGUCAAAUUGCGGGAAAGGGGUCAACAGCCGUUCAGUACCAAGUCUCAGGGGAAACUUUGAGAUGGCCUUGCAAAGGGUAUGGUAAUAAGCUGACGGACAUGGUCCUAACCACGCAGCCAAGUCCUAAGUCAACAGAUCUUCUGUUGAUAUGGAUGCAGUUCACAGACUAAAUGUCGGUCGGGGAAGAUGUAUUCUUCUCAUAAGAUAUAGUCGGACCUCUCCUUAAUGGGAGCUAGCGGAUGAAGUGAUGCAACACUGGAGCCGCUGGGAACUAAUUUGUAUGCGAAAGUAUAUUGAUUAGUUUUGGAGUACUCGUGGUCG
How it was run: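 The eight P1ex-region nucleotides of an intron in the knt kanamycin-resistance gene on pET-22b(+) were all randomised and the library put into E. coli BL21(DE3). Six replicate transformations were grown overnight at 37°C or 30°C on LB agar with or without 25 μg/mL kanamycin, together with 100 μg/mL carbenicillin, 50 μM IPTG and 0.2% rhamnose. Colonies were pooled and amplicon-sequenced on an Illumina HiSeq 2500. Fitness from DiMSum is the error-weighted combination of wild-type-normalised replicate fold changes, kanamycin over none.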

Sequence | self-splicing fitness (ln) (30 °C) | self-splicing fitness (ln) (37 °C)
CCGUAGCAAUAUUACGGAGA | -3.01 ± 0.28 | -2.32 ± 0.38
AGCGAGCAAUAUUACGUGAU | -2.98 ± 0.21 | -3.09 ± 0.35
CACGAGCAAUAUUACGAGCC | -3.12 ± 0.31 | -3.55 ± 0.47
CUUCAGCAAUAUUACGUGCA | -3.53 ± 0.25 | -3.83 ± 0.3
CCGCAGCAAUAUUACGUACU | -4.17 ± 0.33 | -3.33 ± 0.4
GUCUAGCAAUAUUACGGAGG | -3.98 ± 0.3 | -1.59 ± 0.18
GAGAAGCAAUAUUACGAUUA | -0.739 ± 0.099 | 0.245 ± 0.081
UUCAAGCAAUAUUACGACAC | -2.8 ± 0.28 | -1.39 ± 0.18
UGGUAGCAAUAUUACGAACG | -0.892 ± 0.19 | 0.374 ± 0.22
CCAGAGCAAUAUUACGAUAU | -2.51 ± 0.23 | -3.19 ± 0.37
AGUAAGCAAUAUUACGCCAA | -3.35 ± 0.29 | -2.6 ± 0.24
GGCUAGCAAUAUUACGAUAA | -1.28 ± 0.17 | -1.75 ± 0.16
CACGAGCAAUAUUACGGCUC | -2.71 ± 0.29 | -1.6 ± 0.28
CCCUAGCAAUAUUACGGAGC | -3.31 ± 0.21 | -2.22 ± 0.23
UUCGAGCAAUAUUACGUAUG | -2.17 ± 0.13 | -2.49 ± 0.19
CAUCAGCAAUAUUACGCCAC | -2.77 ± 0.46 | -2.22 ± 0.43
GUUUAGCAAUAUUACGGCAU | 0.0778 ± 0.14 | -0.182 ± 0.14
CGCAAGCAAUAUUACGGGUU | -4.62 ± 0.3 | -2.7 ± 0.2
AACUAGCAAUAUUACGAGAG | -3.61 ± 0.12 | -1.84 ± 0.11
GGUCAGCAAUAUUACGCGGG |  | -2.61 ± 0.28
ACGGAGCAAUAUUACGGCUC | -3.6 ± 0.3 | -2.87 ± 0.48
ACUCAGCAAUAUUACGGUAU | -1.67 ± 0.057 | -0.522 ± 0.093
ACGAAGCAAUAUUACGGAUU | -1.86 ± 0.087 | -1.67 ± 0.11
UCCCAGCAAUAUUACGUGCA | -0.634 ± 0.06 | -0.597 ± 0.078
GGUCAGCAAUAUUACGUUGC | -1.98 ± 0.098 | -0.999 ± 0.1

Sequence | self-splicing fitness (ln) (30 °C) | self-splicing fitness (ln) (37 °C)
UGUUAGCAAUAUUACGUACC | -0.945 ± 0.14 | 0.399 ± 0.17
GUAAAGCAAUAUUACGUAUU | -1.87 ± 0.076 | -1.69 ± 0.1
CCUGAGCAAUAUUACGCUGA | -2.59 ± 0.31 | -2.56 ± 0.35
AGCCAGCAAUAUUACGCCCG | -1.94 ± 0.47 | -1.61 ± 0.36
GUGCAGCAAUAUUACGCUUU | -1.26 ± 0.066 | -0.18 ± 0.074
CCCAAGCAAUAUUACGCAGC | -3.93 ± 0.29 | -3.49 ± 0.34
GGCCAGCAAUAUUACGCGUG | -1.22 ± 0.079 | -0.385 ± 0.092
AAUCAGCAAUAUUACGCUAA | -0.408 ± 0.089 | 0.12 ± 0.092
UCCCAGCAAUAUUACGGAAG | -3.24 ± 0.12 | -2.88 ± 0.23
CCAAAGCAAUAUUACGGAGA | -4.23 ± 0.42 | -1.92 ± 0.23
GGACAGCAAUAUUACGCCCU | -3.25 ± 0.2 | -0.306 ± 0.14
UGCAAGCAAUAUUACGCAUC | -1.87 ± 0.45 | -1.52 ± 0.45
UGUGAGCAAUAUUACGGUUU | -3.66 ± 0.21 | -2.65 ± 0.25
UGUAAGCAAUAUUACGCAAC | -3.15 ± 0.31 | -1.79 ± 0.29
CACCAGCAAUAUUACGCUUA | -2.24 ± 0.09 | -1.23 ± 0.083
AGUUAGCAAUAUUACGUAUG | -1.57 ± 0.15 | -2.67 ± 0.29
CCCGAGCAAUAUUACGCGAG | -5.08 ± 0.41 | -2.46 ± 0.18
CCUUAGCAAUAUUACGUCGG | -3.99 ± 0.26 | -1.37 ± 0.15
AAGAAGCAAUAUUACGCCAA | -2.24 ± 0.25 | -1.04 ± 0.21
CCCGAGCAAUAUUACGUGGC |  | -3.58 ± 0.25
AAGAAGCAAUAUUACGUUAC | -3.33 ± 0.17 | -3.57 ± 0.25
AUAUAGCAAUAUUACGUACC | -1.41 ± 0.2 | -0.927 ± 0.28
GCAUAGCAAUAUUACGAGUU | -3.15 ± 0.13 | -1.33 ± 0.1
AUGGAGCAAUAUUACGUUUU | -3.1 ± 0.36 | -2.05 ± 0.31
UUAGAGCAAUAUUACGCGAU | -3.09 ± 0.19 | -2.19 ± 0.24

Sequence | self-splicing fitness (ln) (30 °C) | self-splicing fitness (ln) (37 °C)
CGAUAGCAAUAUUACGAUCA | -0.106 ± 0.06 | 0.441 ± 0.087
AGUUAGCAAUAUUACGGUCU | -0.221 ± 0.081 | -0.0741 ± 0.087
AAAUAGCAAUAUUACGGUCG | -0.942 ± 0.065 | -0.272 ± 0.095
AAACAGCAAUAUUACGUGCC | -2 ± 0.1 | -1.31 ± 0.13
GUUGAGCAAUAUUACGUGUU | -3.15 ± 0.25 | -2.29 ± 0.3
AACGAGCAAUAUUACGGCGC | -2.14 ± 0.18 | -1.31 ± 0.16
GUCUAGCAAUAUUACGUAGU | -0.529 ± 0.087 | 0.276 ± 0.092
CGGCAGCAAUAUUACGCCUC | -3.4 ± 0.27 | -1.59 ± 0.25
UCGAAGCAAUAUUACGGCGA | -0.741 ± 0.12 | -0.539 ± 0.17
CUGAAGCAAUAUUACGCGAG | -0.671 ± 0.088 | -0.527 ± 0.11
CAAAAGCAAUAUUACGAAAC | -4.17 ± 0.39 | -3.75 ± 0.33
UAAUAGCAAUAUUACGGUUA | -0.888 ± 0.11 | -0.925 ± 0.091
ACCAAGCAAUAUUACGAAGG | -2.34 ± 0.12 | -1.09 ± 0.14
UUACAGCAAUAUUACGCGCA | -0.521 ± 0.11 | -0.892 ± 0.12
UGAGAGCAAUAUUACGCCGG | -3.37 ± 0.47 | 
CGAUAGCAAUAUUACGAUUC | -3.87 ± 0.39 | -0.777 ± 0.17
AAGGAGCAAUAUUACGGUCC | -2.13 ± 0.18 | -2.03 ± 0.27
ACGAAGCAAUAUUACGAUCC | -1.12 ± 0.1 | -0.136 ± 0.14
ACAGAGCAAUAUUACGUCCU | -1.35 ± 0.21 | -0.399 ± 0.2
AUGUAGCAAUAUUACGUGUC | -3.79 ± 0.31 | -2.81 ± 0.26
ACGCAGCAAUAUUACGCAUC | -2.1 ± 0.11 | -1.47 ± 0.16
GGAUAGCAAUAUUACGUACG | -0.84 ± 0.21 | -0.97 ± 0.25
UGGAAGCAAUAUUACGCGCU | -1.17 ± 0.21 | -1.52 ± 0.3
UCCAAGCAAUAUUACGCACC | -4.36 ± 0.32 | -1.94 ± 0.21
GCUGAGCAAUAUUACGGCAC | -0.439 ± 0.24 | -1.28 ± 0.39
